Legend:
[1] = target: Jurkat-hTIGIT-NFAT-CD226细胞上过表达的人TIGIT (human); experiment: cell-based or functional assay
[2] = target: 表达于CHOK1细胞表面的人TIGIT (CHOK1/人TIGIT细胞, 吉满生物 GM-C01116) (human) (UniProt Q495A1); experiment: flow cytometry on CHOK1/hTIGIT cells
[3] = target: 表达于CHOK1细胞表面的人TIGIT (CHOK1/人TIGIT细胞, 吉满生物 GM-C01116) (human) (UniProt Q495A1); experiment: flow cytometry competition, inhibition of Biotinylated-CD155 (0.6μg/ml) binding to CHOK1/hTIGIT cells
[4] = target: 表达于CHOK1细胞表面的人TIGIT (CHOK1/人TIGIT细胞, 吉满生物 GM-C01116) (human) (UniProt Q495A1); experiment: flow cytometry competition, inhibition of Biotinylated-CD155 (0.6μg/ml) binding to CHOK1/human TIGIT cells

Chain of UniProt Q495A1 (Q495A1 22-244, one chain of several): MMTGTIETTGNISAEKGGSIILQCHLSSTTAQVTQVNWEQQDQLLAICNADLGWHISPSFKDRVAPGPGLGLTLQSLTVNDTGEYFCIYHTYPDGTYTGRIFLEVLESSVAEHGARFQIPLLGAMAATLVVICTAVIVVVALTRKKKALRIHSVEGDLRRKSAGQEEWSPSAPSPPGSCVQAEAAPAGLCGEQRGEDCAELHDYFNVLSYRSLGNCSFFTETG

Max RLU [1]: 7110 RLU | 最大RLU [1]: 6320 RLU | 最大MFI [2]: 229 MFI | 最大抑制 [3]: 6.36% | 最大抑制 [4]: 3.03%
Substance: IgG对照 (antibody)
